Consider 2 substances from article PMC3820547.

For assay [1], the target named is Replication Protein A (Q9V1Z1, Q9V1Y9, Q9V1Z0), His-tagged RPA complex (Pyrococcus abyssi). In words: SPR; RPA (100 nM, 10 min) held on a 5' biotinylated 32-mer ssDNA on a streptavidin surface; analytes injected at 16.67, 50, 150 and 450 nM; 25°C, PBS Tween 0.5%, 20 uL/min; referenced against ssDNA/RPA dissociation curves; 1:1 binding model. Background: SPR reads the build-up and loss of mass on a sensor chip optically.

Assay [2] deals with A1 subunit of the RNA polymerase, endogenous (Pyrococcus abyssi (endogenous in P. abyssi cell extract)).
Assay [3] concerns the target A2 subunit of the RNA polymerase, endogenous (Pyrococcus abyssi (endogenous in P. abyssi cell extract)).

“DNA Polymerase D (Q9V2F3, Q9V2F4), HIS-tagged complex (from UniProt Q9V2F3 1-619; Q9V2F4 1-1455)” returned a stability relative to the RPA/catalytic subunit of DNA primase complex (from the dissociation constants of Figure 2) in assay [1] of 2 fold. With “Replication Protein A (Q9V1Z1, Q9V1Y9, Q9V1Z0), His-tagged RPA complex”, the run-off transcripts in a promoter-specific in vitro transcription assay (gdh promoter; RNAP, TBP and TFB from P. furiosus), RPA 10-50 nM in assay [2] and in assay [3] was 3 fold in each case.
